# Data published in patent US20240199695A1 (TRANSFERT PLUS S E C, published 2024).
# Non-standard residues stand in square brackets, D forms with d. No end group written: not given here. *: point of attachment. curcumin = curcumin, a phytochemical attached to the lysine side chains; Biotin = O=C1N[C@H]2[C@H](CS[C@H]2CCCCC(=O)*)N1; Nle = CCCC[C@H](N)C(=O)O
# Columns and labels:
# [1] = biological target: T1, sortilin expressed on cancer cells (SKOV3, ES-2 ovarian cancer cells) (UniProt Q99523 78-831, limits assumed)
# T1 sequence (looked up): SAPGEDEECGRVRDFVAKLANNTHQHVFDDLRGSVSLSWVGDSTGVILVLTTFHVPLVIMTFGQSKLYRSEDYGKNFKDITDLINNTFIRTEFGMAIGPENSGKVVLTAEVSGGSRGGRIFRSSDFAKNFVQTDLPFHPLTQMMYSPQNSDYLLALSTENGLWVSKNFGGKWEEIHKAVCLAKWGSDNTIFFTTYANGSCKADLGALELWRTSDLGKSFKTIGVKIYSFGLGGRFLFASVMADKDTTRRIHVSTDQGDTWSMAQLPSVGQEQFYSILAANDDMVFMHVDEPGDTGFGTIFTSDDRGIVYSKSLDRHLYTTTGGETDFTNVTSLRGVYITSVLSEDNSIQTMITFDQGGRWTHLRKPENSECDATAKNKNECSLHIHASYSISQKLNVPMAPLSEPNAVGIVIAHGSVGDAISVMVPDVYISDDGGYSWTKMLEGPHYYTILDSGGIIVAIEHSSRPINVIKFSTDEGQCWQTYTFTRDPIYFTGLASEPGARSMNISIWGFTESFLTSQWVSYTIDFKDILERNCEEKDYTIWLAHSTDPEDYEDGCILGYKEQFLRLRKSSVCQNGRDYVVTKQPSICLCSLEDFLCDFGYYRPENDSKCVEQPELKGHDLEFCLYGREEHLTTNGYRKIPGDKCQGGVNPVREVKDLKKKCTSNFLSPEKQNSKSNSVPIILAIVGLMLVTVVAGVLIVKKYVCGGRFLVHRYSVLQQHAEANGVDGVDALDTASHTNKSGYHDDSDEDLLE
# [2] = biological target: T1, sortilin expressed on cancer cells …; remark: listed apart in the source
# [3] = biological target: T1, sortilin expressed on cancer cells …; remark: listed apart in the source
# [4] = biological target: T1, sortilin expressed on cancer cells …; remark: listed apart in the source
# [5] = biological target: T1, sortilin expressed on cancer cells …; test: cell-based or functional assay
# soluble form of sortilin = biological target: T2, soluble form of sortilin (UniProt Q99523 78-755, limits assumed); test: SPR; biotinylated KBP-103 on a streptavidin chip, soluble sortilin injected
# T2 construct: also called soluble sortilin; receptor sortilin
# T2 sequence (looked up): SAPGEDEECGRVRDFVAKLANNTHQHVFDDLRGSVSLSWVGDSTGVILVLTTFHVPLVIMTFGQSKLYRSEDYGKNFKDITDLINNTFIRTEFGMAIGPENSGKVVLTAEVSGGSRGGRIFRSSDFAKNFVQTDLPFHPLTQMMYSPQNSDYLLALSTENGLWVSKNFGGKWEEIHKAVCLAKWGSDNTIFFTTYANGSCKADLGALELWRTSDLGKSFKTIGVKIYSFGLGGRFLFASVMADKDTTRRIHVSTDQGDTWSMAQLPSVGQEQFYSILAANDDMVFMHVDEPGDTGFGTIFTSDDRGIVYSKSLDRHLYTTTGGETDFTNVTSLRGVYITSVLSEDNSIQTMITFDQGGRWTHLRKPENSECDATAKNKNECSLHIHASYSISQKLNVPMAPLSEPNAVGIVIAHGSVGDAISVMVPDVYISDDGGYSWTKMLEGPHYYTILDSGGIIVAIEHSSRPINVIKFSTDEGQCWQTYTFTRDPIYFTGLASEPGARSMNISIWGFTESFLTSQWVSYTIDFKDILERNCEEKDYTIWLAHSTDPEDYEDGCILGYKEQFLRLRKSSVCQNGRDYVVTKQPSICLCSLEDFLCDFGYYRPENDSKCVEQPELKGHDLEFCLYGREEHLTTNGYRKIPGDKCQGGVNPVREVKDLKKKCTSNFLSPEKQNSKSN
# Description: Biotinylated Katana peptide was immobilized on a streptavidin sensor chip. A. Soluble sortilin was then injected over the immobilized peptide. The surface plasmon resonance signal was then monitored over time.
# Surface plasmon resonance (SPR) was first used to investigate whether these peptides could be recognized by sortilin. For this approach, biotin was added on the C-terminal end of the Katana-Biopharma peptide during peptide synthesis. The biotinylated-peptide (KBP-103) was then immobilized on a streptavidin sensor chip using recommended procedures from the manufacturer. Increasing concentrations of a soluble form of sortilin was then injected over the sensor chip. Interactions between immobilized KBP-103 and the receptor sortilin was then monitored in real time. A representative interaction curve is shown in FIG. 1, and from the sensorgram curves the affinity constant as well as Ka and Kd were determined and are indicated in Table 2. Affinity constants (KD, […]) were extracted from various injections using the BIA evaluation software.
molecule,measurement,setting,value
Progranulin (from UniProt P28799 18-593) (ligand),inhibition of KBC106 fluorescence intensity (RFU) in ES-2 cells by progranulin [continued) C],[1],81.5%
same,inhibition of KBB106 accumulation (% of control) in ovarian cancer cells by progranulin,[2],52%
same,decrease of the late apoptosis induced by 2 uM KBA-201 in SKOV3 cells by 1.2 nM progranulin,[3],55%
Neurotensin (from UniProt P30990 151-163) (peptide),decrease of the late apoptosis induced by 2 uM KBA-105 in SKOV3/Luc cells by 10 uM NT,[4],47.5%
same,inhibition of KBC106 fluorescence intensity (RFU) in ES-2 cells by neurotensin (bar NT) [continued) C],[1],52%
same,decrease of the late apoptosis induced by 2 uM KBA-201 in SKOV3 cells by 10 uM NT,[3],45.5%
Ac-GVRAK(curcumin)AGVRN[Nle]FK(curcumin)SESY [KBC-106 (2:1): Acetyl-GVRAK(curcumin)AGVRN(Nle)FK(curcumin)SESY],relative fluorescence (RFU) of ES-2 cells after KBC106 against unconjugated curcumin (live imaging),[5],2.3 fold
IKLSGGVQAKAGVINMFKSESYK(Biotin) (Immobilised on a streptavidin sensor chip in the SPR assay; also called biotinylated-peptide; Katana peptide) [KBP-103: IKLSGGVQAKAGVINMFKSESYK(Biotin)],Kd,soluble form of sortilin,25.5 nM
same,koff,soluble form of sortilin,0.0174 s⁻¹
same,kon,soluble form of sortilin,683000 M⁻¹ s⁻¹
